Target: LSD1 (aa 171–852) and RCOR1 (aa 286–485) complex (truncated LC) (UniProt O60341 171-852; Q9UKL0 286-485)
Test: MST; Cy5-labelled His-tag U2AF2 fragments mixed with serially diluted truncated LSD1/RCOR1
Settings: both partners purified

Kd [µM] | Binder
14 | His-tag U2AF2 fragment (aa 85–471), Cy5-labelled (domain or fragment, Cy5 dye at lysine residues (reactive NHS-ester dye), U2AF2, aa 85-471; also called U2AF2 85–471; Fluor-U2AF2) KKKVRKYWDVPPPGFEHITPMQYKAMQAAGQIPATALLPTMTPDGLAVTPTPVPVVGSQMTRQARRLYVGNIPFGITEEAMMDFFNAQMRLGGLTQAPGNPVLAVQINQDKNFAFLEFRSVDETTQAMAFDGIIFQGQSLKIRRPHDYQPLPGMSENPSVYVPGVVSTVVPDSAHKLFIGGLPNYLNDDQVKELLTSFGPLKAFNLVKDSATGLSKGYAFCEYVDINVTDQAIAGLNGMQLGDKKLLVQRASVGAKNATLVSPPSTINQTPVTLQVPGLMSSQVQMGGHPTEVLCLMNMVLPEELLDDEEYEEIVEDVRDECSKYGLVKSIEIPRPVDGVEVPGCGKIFVEFTSVFDCQKAMQGLTGRKFANRVVVTKYCDPDSYHR
16 | His-tag U2AF2 fragment (aa 241–471), Cy5-labelled (domain or fragment, Cy5 dye at lysine residues (reactive NHS-ester dye), U2AF2, aa 241-471, composed of RRM2 and UHM; also called U2AF2 241–471; Fluor-U2AF2) NPSVYVPGVVSTVVPDSAHKLFIGGLPNYLNDDQVKELLTSFGPLKAFNLVKDSATGLSKGYAFCEYVDINVTDQAIAGLNGMQLGDKKLLVQRASVGAKNATLVSPPSTINQTPVTLQVPGLMSSQVQMGGHPTEVLCLMNMVLPEELLDDEEYEEIVEDVRDECSKYGLVKSIEIPRPVDGVEVPGCGKIFVEFTSVFDCQKAMQGLTGRKFANRVVVTKYCDPDSYHR
